Assay results reported in patent US20150099790A1.

Tests used:
Assay in all cases: TAP purification of tagged bait from yeast, trypsin digestion, mass spectrometric identification of co-purified proteins
[1] = target: Nde1 (Saccharomyces cerevisiae) (UniProt P40215)
[2] = target: Cor1 (Saccharomyces cerevisiae) (UniProt P07256)
[3] = target: Md12 (Saccharomyces cerevisiae) (UniProt P33311)
[4] = target: Gut2 (Saccharomyces cerevisiae) (UniProt P32191)
[5] = target: Mpc3 (S. cerevisiae, encoded by YGR243W) (S. cerevisiae) (UniProt P53311)
[6] = target: Qcr2 (Saccharomyces cerevisiae) (UniProt P07257)
[7] = target: Fmp24 (Saccharomyces cerevisiae) (UniProt Q04472)
[8] = target: Mpm1 (Saccharomyces cerevisiae) (UniProt P40364)
Chain of Mpm1 (Saccharomyces cerevisiae) (P40364 whole entry): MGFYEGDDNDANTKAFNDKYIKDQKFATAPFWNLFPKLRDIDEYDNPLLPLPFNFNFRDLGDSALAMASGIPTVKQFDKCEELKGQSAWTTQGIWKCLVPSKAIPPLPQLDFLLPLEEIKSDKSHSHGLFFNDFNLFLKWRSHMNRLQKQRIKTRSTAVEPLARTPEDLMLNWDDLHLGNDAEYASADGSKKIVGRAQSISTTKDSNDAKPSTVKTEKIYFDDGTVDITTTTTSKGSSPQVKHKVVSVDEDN

Chain of Gut2 (Saccharomyces cerevisiae) (P32191 whole entry): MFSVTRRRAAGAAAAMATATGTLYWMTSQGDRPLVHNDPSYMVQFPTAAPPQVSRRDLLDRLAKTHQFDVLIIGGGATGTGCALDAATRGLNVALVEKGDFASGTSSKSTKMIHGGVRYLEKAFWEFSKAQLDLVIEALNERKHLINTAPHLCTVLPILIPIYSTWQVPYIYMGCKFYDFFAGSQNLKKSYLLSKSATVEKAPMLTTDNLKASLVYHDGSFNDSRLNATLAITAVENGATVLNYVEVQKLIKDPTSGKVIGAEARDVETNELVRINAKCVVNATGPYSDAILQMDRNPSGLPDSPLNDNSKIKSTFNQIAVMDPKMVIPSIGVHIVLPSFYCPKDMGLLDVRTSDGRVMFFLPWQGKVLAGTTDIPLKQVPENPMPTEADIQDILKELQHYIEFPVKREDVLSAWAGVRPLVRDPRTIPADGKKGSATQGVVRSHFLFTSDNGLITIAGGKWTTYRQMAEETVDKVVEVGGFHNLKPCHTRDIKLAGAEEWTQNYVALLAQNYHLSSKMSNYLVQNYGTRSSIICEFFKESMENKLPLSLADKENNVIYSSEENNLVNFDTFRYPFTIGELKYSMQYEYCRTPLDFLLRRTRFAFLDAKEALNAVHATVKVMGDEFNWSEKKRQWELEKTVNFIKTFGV
Chain of Fmp24 (Saccharomyces cerevisiae) (Q04472 whole entry): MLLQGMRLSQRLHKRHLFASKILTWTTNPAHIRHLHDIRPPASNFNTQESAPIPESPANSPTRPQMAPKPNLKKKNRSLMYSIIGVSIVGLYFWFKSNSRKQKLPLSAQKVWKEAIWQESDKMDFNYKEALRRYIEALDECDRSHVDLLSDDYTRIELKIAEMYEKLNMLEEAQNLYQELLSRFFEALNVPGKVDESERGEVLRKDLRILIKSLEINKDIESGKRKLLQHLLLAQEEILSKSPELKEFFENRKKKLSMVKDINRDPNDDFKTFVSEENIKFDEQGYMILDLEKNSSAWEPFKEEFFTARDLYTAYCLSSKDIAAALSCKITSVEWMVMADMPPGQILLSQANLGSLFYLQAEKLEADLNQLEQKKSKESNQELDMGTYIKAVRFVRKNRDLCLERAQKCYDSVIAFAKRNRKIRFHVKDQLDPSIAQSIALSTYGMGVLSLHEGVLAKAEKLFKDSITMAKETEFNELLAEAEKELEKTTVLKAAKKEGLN
Chain of Md12 (Saccharomyces cerevisiae) (P33311 91-773 limits assumed): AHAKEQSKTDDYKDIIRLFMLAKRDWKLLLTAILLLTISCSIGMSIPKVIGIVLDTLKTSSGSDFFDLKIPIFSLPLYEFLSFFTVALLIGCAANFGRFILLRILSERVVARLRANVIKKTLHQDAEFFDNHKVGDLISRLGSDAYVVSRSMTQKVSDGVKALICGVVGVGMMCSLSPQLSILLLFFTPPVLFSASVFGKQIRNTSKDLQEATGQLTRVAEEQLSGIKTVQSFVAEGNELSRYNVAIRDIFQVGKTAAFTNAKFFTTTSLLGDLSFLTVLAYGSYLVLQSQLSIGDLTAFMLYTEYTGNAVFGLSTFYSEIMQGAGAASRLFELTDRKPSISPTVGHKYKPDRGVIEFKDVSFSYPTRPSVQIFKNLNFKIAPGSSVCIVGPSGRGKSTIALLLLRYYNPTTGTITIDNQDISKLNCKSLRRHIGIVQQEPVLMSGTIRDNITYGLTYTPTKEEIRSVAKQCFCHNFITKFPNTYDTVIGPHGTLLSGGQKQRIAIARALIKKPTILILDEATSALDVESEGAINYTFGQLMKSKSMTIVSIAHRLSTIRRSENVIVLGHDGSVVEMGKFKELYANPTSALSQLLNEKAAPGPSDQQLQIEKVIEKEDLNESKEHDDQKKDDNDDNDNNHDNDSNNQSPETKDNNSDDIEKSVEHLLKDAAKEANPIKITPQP
Chain of Cor1 (Saccharomyces cerevisiae) (P07256 27-457 limits assumed): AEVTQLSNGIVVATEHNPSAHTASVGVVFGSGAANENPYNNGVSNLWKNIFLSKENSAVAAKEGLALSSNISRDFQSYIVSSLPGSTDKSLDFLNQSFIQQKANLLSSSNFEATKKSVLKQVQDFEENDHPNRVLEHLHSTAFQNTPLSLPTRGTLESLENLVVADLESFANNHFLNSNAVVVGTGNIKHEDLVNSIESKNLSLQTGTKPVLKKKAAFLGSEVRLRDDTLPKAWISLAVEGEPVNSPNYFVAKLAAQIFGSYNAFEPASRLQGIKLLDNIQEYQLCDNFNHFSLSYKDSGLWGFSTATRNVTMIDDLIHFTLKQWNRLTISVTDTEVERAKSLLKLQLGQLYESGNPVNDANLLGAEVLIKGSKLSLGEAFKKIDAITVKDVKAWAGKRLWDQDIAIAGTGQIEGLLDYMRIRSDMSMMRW
Chain of Qcr2 (Saccharomyces cerevisiae) (P07257 17-368 limits assumed): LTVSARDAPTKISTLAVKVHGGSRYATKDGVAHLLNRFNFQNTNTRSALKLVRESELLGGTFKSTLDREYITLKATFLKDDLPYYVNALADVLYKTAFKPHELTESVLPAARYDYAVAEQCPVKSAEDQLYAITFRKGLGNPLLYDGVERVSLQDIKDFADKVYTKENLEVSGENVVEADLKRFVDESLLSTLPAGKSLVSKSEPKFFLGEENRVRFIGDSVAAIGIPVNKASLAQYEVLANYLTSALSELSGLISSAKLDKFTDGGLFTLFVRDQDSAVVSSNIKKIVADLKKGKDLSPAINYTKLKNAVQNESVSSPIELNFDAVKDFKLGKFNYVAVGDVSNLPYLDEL
Chain of Nde1 (Saccharomyces cerevisiae) (P40215 42-560 limits assumed): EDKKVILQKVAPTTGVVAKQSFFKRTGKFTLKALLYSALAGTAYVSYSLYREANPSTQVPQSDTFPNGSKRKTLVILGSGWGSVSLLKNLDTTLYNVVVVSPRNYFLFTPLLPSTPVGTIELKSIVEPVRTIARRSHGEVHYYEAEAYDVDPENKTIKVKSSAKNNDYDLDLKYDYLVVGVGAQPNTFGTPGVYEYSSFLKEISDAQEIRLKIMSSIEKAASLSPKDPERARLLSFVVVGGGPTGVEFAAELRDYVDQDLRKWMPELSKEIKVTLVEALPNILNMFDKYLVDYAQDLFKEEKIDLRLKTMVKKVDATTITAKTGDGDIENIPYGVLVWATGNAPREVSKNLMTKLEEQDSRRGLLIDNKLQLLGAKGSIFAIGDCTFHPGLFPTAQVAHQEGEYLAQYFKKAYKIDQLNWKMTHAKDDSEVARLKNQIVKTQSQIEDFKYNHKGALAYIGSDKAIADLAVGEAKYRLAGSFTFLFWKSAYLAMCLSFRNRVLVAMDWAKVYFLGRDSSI

PSMs [1] [PSMs]	PSMs [2] [PSMs]	PSMs [3] [PSMs]	PSMs [4] [PSMs]	PSMs [5] [PSMs]	PSMs [6] [PSMs]	PSMs [7] [PSMs]	PSMs [8] [PSMs]	Substance
6	5	28	4	5	3	–	–	Mpc2, tagged variant used for TAP purification (from UniProt P38857 1-129)
–	–	–	7	5	–	4	7	Mpc1-His6/HA2 (from UniProt P53157 1-130)
